{
  "source": "patent US20240336691A1",
  "about": "(PROMETHEUS BIOSCIENCES, published 2024)",
  "binders": {"B1": {"name": "anti-TL1A antibody A219 (antibody, V domains shown)", "VH": "QVQLVQSGAEVKKPGASVKVSCKASGFDIQDTYMHWVKQRPGQGLEWMGRIDPASGHTKYDPKFQVRVTITRDTSTSTVYLELSSLRSEDTAVYYCARSGGLPDVWGQGTTVTVSS", "VL": "EIVLTQSPGTLSLSPGERATLSCRASSSVSYMYWYQQKPGQAPRPLIYATSNLASGIPDRFSGSGSGTDFTLTISRLEPEDFAVYYCQQWEGNPRTFGGGTKLEIK"}, "B2": {"name": "A212 (antibody, human IgG1, V domains shown)", "VH": "B1 VH with K38R, M48I, V68A, R72T, V79A", "VL": "B1 VL"}, "B3": {"name": "A147 (antibody, human IgG1, V domains shown)", "VH": "B1 VH with D52E, T58I, V66G, I70M, L81M, V105W", "VL": "B1 VL"}, "B4": {"name": "A217 (antibody, human IgG1, V domains shown)", "VH": "B1 VH with L81M", "VL": "B1 VL"}, "B5": {"name": "A220 (antibody, human IgG1, V domains shown)", "VH": "B1 VH with I70M, V79A", "VL": "B1 VL with L46W"}, "B6": {"name": "A213 (antibody, human IgG1, V domains shown)", "VH": "B1 VH with K38R, R72T, L81M", "VL": "B1 VL"}, "B7": {"name": "A219 (antibody, V domains shown)", "VH": "B1 VH", "VL": "B1 VL"}},
  "note": "Numbering of substitutions follows the chain as printed. Several values for one entry are separate records, joined by “and”; a condition that tells them apart may be missing. Equal values may be shown once.",
  "data": [
    {"target": "T1, TL1A produced by cynomolgus monkey PBMCs in whole blood (cynomolgus monkey, UniProt G7PRK8 72-251)", "T1 sequence": "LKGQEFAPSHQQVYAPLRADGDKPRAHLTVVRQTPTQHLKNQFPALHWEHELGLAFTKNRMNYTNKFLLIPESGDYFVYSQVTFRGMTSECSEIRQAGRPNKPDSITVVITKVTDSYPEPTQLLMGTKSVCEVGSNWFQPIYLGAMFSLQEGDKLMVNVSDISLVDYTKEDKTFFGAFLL", "test": "cell-based or functional assay", "values": [
      {"binder": "B1", "mean IC50 for the inhibition of the IFN-γ response in monkey whole blood": "1.54 nM and 289 ng/mL"}
    ]},
    {"target": "T2, TL1A in human blood (endogenous) (human, UniProt O95150 72-251, limits assumed)", "T2 sequence (looked up)": "T1 sequence with L39F, V78I", "test": "cell-based or functional assay", "units": {"% Inhibition at 1 nM Ig of interferon gamma release in human blood": "%", "% Inhibition at 10 nM Ig of interferon gamma release in human blood": "%"}, "values": [
      {"binder": "B2", "% Inhibition at 1 nM Ig of interferon gamma release in human blood": 46.8, "% Inhibition at 10 nM Ig of interferon gamma release in human blood": 71.2},
      {"binder": "B3", "% Inhibition at 1 nM Ig of interferon gamma release in human blood": 51.3, "% Inhibition at 10 nM Ig of interferon gamma release in human blood": 72.4},
      {"binder": "B4", "% Inhibition at 1 nM Ig of interferon gamma release in human blood": 46, "% Inhibition at 10 nM Ig of interferon gamma release in human blood": 72.2},
      {"binder": "B5", "% Inhibition at 1 nM Ig of interferon gamma release in human blood": 36.9, "% Inhibition at 10 nM Ig of interferon gamma release in human blood": 63.2},
      {"binder": "B6", "% Inhibition at 1 nM Ig of interferon gamma release in human blood": 48.6, "% Inhibition at 10 nM Ig of interferon gamma release in human blood": 69.8},
      {"binder": "B7", "% Inhibition at 1 nM Ig of interferon gamma release in human blood": 59.8, "% Inhibition at 10 nM Ig of interferon gamma release in human blood": 75.2}
    ]}
  ]
}
